Measurements reported in patent US20050042205A1 (Genentech, Inc., published 2005).

Target: rat luteal LH/CG receptor (LH/CG-R) expressed from the cloned cDNA (expression vector pCLHR) in transiently … (rat, UniProt P16235)
Experiment: 125I-CG binding to intact 293 cells transfected with the LH/CG receptor cDNA

B1: human choriogonadotropin, highly purified (CR-123; 12,780 IU/mg) (ligand)
chain 1: not shown
chain 2: SKEPLRPRCRPINATLAVEKEGCPVCITVNTTICAGYCPTMTRVLQGVLPALPQVVCNYRDVRFESIRLPGCPRGVNPVVSYAVALSCQCALCRRSTTDCGGPKDHPLTCDDPRFQDSSSSKAPPPSLPSPSRLPGPSDTPILPQ
For B1, the Kd was 0.08 to 0.16 nM.
